Reference: the DeepSol protein solubility set

Assay: soluble on expression in E. coli; label from the status in PepcDB or PDB records

Sequence	soluble on expression in E. coli
MTISRTQQIQQLEQEWTSPRWKNITRPYSAEDVIKLRGSVNPECTFAQNGAKKLWELLHGGSRKGYINCLGALTGGQALQQAKAGVEAIYMSGWQVAADANTASSMYPDQSLYPVDSVPAVVKRINNSFRRADQIQWSNNIEPGSKGYTDYFLPIVADAEAGFGGVLNAFELMKAMIEAGAAGVHFEDQLAAVKKCGHMGGKVLVPTQEAIQKLVAARLAADVLGVPTLLIARTDADAADLLTSDCDPYDREFITGDRTAEGFFRTRAGIEQAISRGLAYAPYADLVWCETSTPDLALAKRFADAVHAQFPGKLLAYNCSPSFNWKKNLTDQQIASFQDELSAMGYKYQFITLAGIHSMWFNMFDLAHAYAQGEGMKHYVEKVQQPEFASVDRGYTFASHQQEVGTGYFDKVTNIIQGGASSVTALTGSTEEQQF	soluble
MTITSLDGYRWLKNDIIRGNFQPDEKLRMSLLTSRYALGVGPLREALSQLVAERLVTVVNQKGYRVASMSEQELLDIFDARANMEAMLVSLAIARGGDEWEADVLAKAHLLSKLEACDASEKMLDEWDLRHQAFHTAIVAGCGSHYLLQMRERLFDLAARYRFIWLRRTVLSVEMLEDKHDQHQTLTAAVLARDTARASELMRQHLLTPIPIIQQAMAGN	soluble
MTKAKDLTGKKIAILAADGVEEIELTSPRAAIEAAGGTTELISLEPGEIQSMKGDIEPQEKYRVDHVVSEVQVSDYDGLLLPGGTVNPDKLRLEEGAMKFVRDMYDAGKPIAAICHGPWSLSETGIAQGLKMTSWSSLKRELTLAGAQWVDEECVTDKGVVTSRKPDDLPAFNKKIVEEFAEGDHSSRRK	soluble
MTKFESSVKVIPYSQERVYEKLADLSNLEAIKDRLPEDKVKNMSFDTDTLSFNVDPVGQLTLRIIEREPSKCIKFETTNSPLPFNMWIQLVAVSEEECKLKVTIGLEINPFMKAMVQKPLNEGLEKMADMLSMIQYLEHHHHHH	soluble
MTKFIGCIDLHNGEVKQIVGGTLTSKKEDVPKTNFVSQHPSSYYAKLYKDRDVQGCHVIKLGPNNDDAAREALQESPQFLQVGGGINDTNCLEWLKWASKVIVTSWLFTKEGHFQLKRLERLTELCGKDRIVVDLSCRKTQDGRWIVAMNKWQTLTDLELNADTFRELRKYTNEFLIHAADVEGLCGGIDELLVSKLFEWTKDYDDLKIVYAGGAKSVDDLKLVDELSHGKVDLTFGSSLDIFGGNLVKFEDCCRWNEKQG	soluble
MTKFVAKKAILLLSLLLLGTAESKPLDAEQQHIDDQHVRKERQLKMAGSADPDVKMVANVTPATGSQPMSMTMGVPMNQMALSSVGGQLVRYPNYPGLIYPGLAPAPGLNGVPGLQTNIANNYPSYPDPNLTGSVPGFNPFGSFGYPGVAPMYGNSLMYPNPQLPNGFVPNPAVDNFQSLNNIVNMANVQGLAGGSSGIYPAPQGFGGVSPGLYPAPQGFGGANPGLYPAPQVNMQGLYPPSGGFLERMNMQGYAPGFLEHHHHHH	not soluble
MTKIFIRDDNGGTEMSQDPFQEREAEKYANPIPSREFILEHLTKREKPASRDELAVELHIEGEEQLEGLRRRLRAMERDGQLVFTRRQCYALPERLDLVKGTVIGHRDGYGFLRVEGRKDDLYLSSEQMKTCIHGDQVLAQPLGADRKGRREARIVRVLVPKTSQIVGRYFTEAGVGFVVPDDSRLSFDILIPPDQIMGARMGFVVVVELTQRPTRRTKAVGKIVEVLGDNMGTGMAVDIALRTHEIPYIWPQAVEQQVAGLKEEVPEEAKAGRVDLRDLPLVTIDGEDARDFDDAVYCEKKRGGGWRLWVAIADVSYYVRPSTPLDREARNRGTSVYFPSQVIPMLPEVLSNGLCSLNPQVDRLCMVCEMTVSSKGRLTGYKFYEAVMSSHARLTYTKVWHILQGDQDLREQYAPLVKHLEELHNLYKVLDKAREERGGISFESEEAKFIFNAERRIERIEQTQRNDAHKLIEECMILANISAARFVEKAKEPALFRIHDKPSTEAITSFRSVLAELGLELPGGNKPEPRDYAELLESVADRPDAEMLQTMLLRSMKQAIYDPENRGHFGLALQSYAHFTSPIRRYPDLTLHRAIKYLLAKEQGHQGNTTETGGYHYSMEEMLQLGQHCSMAERRADEATRDVADWLKCDFMLDQVGNVFKGVISSVTGFGFFVRLDDLFIDGLVHVSSLDNDYYRFDQVGQRLMGESSGQTYRLGDRVEVRVEAVNMDERKIDFSLISSERAPRNVGKTAREKAKKGDAGKKGGKRRQVGKKVNFEPDSAFRGEKKTKPKAAKKDARKAKKPSAKTQKIAAATKAKRAAKKKVAELEHHHHHH	soluble
MTKIIPVASGKGGVGKTSFVANVGYKLSSLGKTVILVDLDLGGSNLHTCLGVKNKGVGIGSFINKKSKSFSDLVCKTSYDKLYLIPGDALYTGTANLPFSIKKKIIESIQKDLIADFIFLDLGSGTSYNTIDFYLASYSGVIVTIPETPSILNAYSFLKNALYRLLYLGFPQKSPERDYIGNFFKDKIEGTNLGFKDLVVGIELISLSSSLKVKRMMNNFYPRVVLNRIETSEEIAMCENLINVVKNNINIPIEFIGFVPFAKSFREAINNRVPFIDFEKNSKLNKYFEFIAGNLIKSPIEGSPYIYDDIYDMIKDQSRFIRKLEHHHHHH	soluble
MTKKYSRFLPSEKSFNIDNFPYYWVTQVHSQYVHNIDNVLKRYGLDNSRRRILLALNIKQNASVSELSEMIISKMSTTTKIVYRLKDEGFVNTYSCENDARITRVNLTEQGKEMIHKINSLTGAVLEQSFEGLTPLQIEKMIDGLKIIFKNLSS	not soluble
MTKMLKLFDAHFHIIDYRFPLITNQSYLPPEFTVEDYLQRAKPLNICGGAVVSGSFQAFDQSYLLAALSILGSDFVGVTQLPATVSDEEIIQLNQKGIRAVRFNVKRGGSENIHRLKYFAHRIYEMVRWHVEIYVDSKDLGDLTSLLLELPAVSIDHLGLSHSGFSQLLHLVEHGIKIKASGFGRVDFDVKKALQTIAQINPDALLFGTDLPSTRAPRPFLDSDIQIIQDLFDEKLTEKILYRNARNFYSKNSSELEHHHHHH	not soluble
MTKNLLVELGLEELPAYVVTPSEKQLGEKMAAFLKGKRLSFEAIQTFSTPRRLAVRVTGLADKQSDLTEDFKGPAKKIALDSDGNFTKAAQGFVRGKGLTVEDIEFREIKGEEYVYVTKEEIGQAVEAIVPGIVDVLKSLTFPVSMHWAGNSFEYIRPVHTLTVLLDEQEFDLDFLDIKGSRVSRGHRFLGQETKIQSALSYEEDLRKQFVIADPCEREQMIVDQIKEIEAKHGVRIEIDADLLNEVLNLVEYPTAFMGSFDAKYLEVPEEVLVTSMKEHQRYFVVRDQDGKLLPNFISVRNGNAERLKNVIKGNEKVLVARLEDGEFFWREDQKLVISDLVEKLNNVTFHEKIGSLREHMIRTGQITVLLAEKASLSVDETVDLARAAAIYKFDLLTGMVGEFDELQGIMGEKYTLLAGETPAVAAAIREHYMPTSAEGELPESKVGAVLAIADKLDTILSFFSVGLIPSGSNDPYALRRATQGVVRILDAFGWHIAMDELIDSLYALKFDSLTYENKAEVMDFIKARVDKMMGSTPKDIKEAVLAGSNFV	not soluble
MTKPLILASQSPRRKELLDLLQLPYSIIVSEVEEKLNRNFSPEENVQWLAKQKAKAVADLHPHAIVIGADTMVCLDGECLGKPQDQEEAASMLRRLSGRSHSVITAVSIQAENHSETFYDKTEVAFWSLSEEEIWTYIETKEPMDKAGAYGIQGRGALFVKKIDGDYYSVMGLPISKTMRALRHFDIRA	soluble
MTKPVVDVKNVQKVYGKKGENQSHALKGVSFSIQEGEFVGIMGPSGSGKTTLLNVISTLDKATGGVVEIAGTDITKMKQGELSDFRSQKLGFIFQDFNLLENLSIYENIALPLSLQGVPSRNIGPKVEKVADMLGISAILQKYPSEVSGGQKQRSAAARALVHEPAIILGDEPTGALDSKNATSLLDAMTNLNQEQGVSIMMVTHDPFSASYCQRILFIQDGELYKEIHRGGTREEFYKEILDVLADLGTQKA	not soluble
MTKQPPIAKADLQKTQGNRAPAAVKNSDVISFINQPSMKEQLAAALPRHMTAERMIRIATTEIRKVPALGNCDTMSFVSAIVQCSQLGLEPGSALGHAYLLPFGNKNEKSGKKNVQLIIGYRGMIDLARRSGQIASLSARVVREGDEFSFEFGLDEKLIHRPGENEDAPVTHVYAVARLKDGGTQFEVMTRKQIELVRSLSKAGNNGPWVTHWEEMAKKTAIRRLFKYLPVSIEIQRAVSMDEKEPLTIDPADSSVLTGEYSVIDNSEE	soluble
